# Laboratory results from US7164000.
# Target: CCR5 (UniProt P51681)
# Assay: cell-based or functional assay
# wild-type RANTES, sequence (P13501 24-91): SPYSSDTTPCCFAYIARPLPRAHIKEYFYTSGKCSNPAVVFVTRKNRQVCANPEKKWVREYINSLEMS
Substance,"relative antiviral activity (ID90 RANTES/ID90 mutant), MDM, HIV-1BaL (fold compared to wild-type RANTES)","relative antiviral activity (ID90 RANTES/ID90 mutant), PBMC, HIV-1 6366 (fold compared to wild-type RANTES)","relative antiviral activity (ID90 RANTES/ID90 mutant), PBMC, HIV-1BaL (fold compared to wild-type RANTES)",concentration giving the highest inhibition of wild-type RANTES activity (calcium mobilisation),"relative antiviral activity (RANTES ID50/mutant ID50), PBMC, HIV-1BaL (fold compared to wild-type RANTES)","ID90, inhibition of HIV-1BaL infection of PBMC (p24 antigen)"
RANTES mutant pVU5 (Ser 1 to Cys) (from UniProt P13501 24-91) (ligand),0.25,0.23,0.24,,,
RANTES mutant pVU14 (Tyr 3 to Ala) (from UniProt P13501 24-91) (ligand),0.23,0.1,0.22,,,
"RANTES mutant pVU15 (Ser 1 to Cys, Ser 5 to Cys) (from UniProt P13501 24-91) (ligand)",4.5,3.3,3.07,500 ng/mL,,
RANTES mutant pVU17 (additional N-terminal Leucine) (from UniProt P13501 24-91) (ligand),11,1.9,4.6,,,
RANTES mutant pVU22 (Tyr 14 to Phe) (from UniProt P13501 24-91) (ligand),,2.5,10,,,
RANTES mutant pVU24 (Arg 17 to Ala) (from UniProt P13501 24-91) (ligand),,1.3,1.09,,,
RANTES mutant pVU26 (Arg 44 to Glu) (from UniProt P13501 24-91) (ligand),,,,,3.16,
RANTES mutant pVU38 (Asp 6 to Arg) (from UniProt P13501 24-91) (ligand),,0.13,0.14,,,
RANTES mutant pVU43 (Lys 45 to Glu) (from UniProt P13501 24-91) (ligand),,,,,1.44,
wild-type RANTES (from UniProt P13501 24-91) (ligand),,,,,,0.096 µg/mL
